# Measured values as given in the nanobody polyreactivity screen of Harvey et al. (2022).
# Experiment: yeast display, Sf9 membrane polyspecificity reagent, FACS + sequencing; frameworks hold sequencing errors
# How it was run: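 In a synthetic yeast display library (Saccharomyces cerevisiae BJ5465), nanobody expression was induced with galactose for 36–48 hours. FACS gates were set low and high (top ~1%) using anti-HA fluorescence for expression and streptavidin fluorescence for binding of the Sf9 membrane reagent. Each polyreactivity label is drawn from the gate of origin.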
row,Sequence,polyreactivity (PSR sort gate)
1,QVQLVESGRGLVQAGGSLRLSCAASGSTFVANDMGWYSQAPGKERELVAAISWSDATTYYADSVKGRGTISRDNAKNTVYLQMNSRKPEDNAVYDCAATRDTNNMDYWGHGTQVTVSS,low polyreactivity
2,QFQLVESGGGLVQAGGSLRLSCAASGRTFGFNAMGWYRQAPGKERELVAALSGSGGRTYYADSVQGRFTISRDNAKNTVYLQMNSLKPEDTAVYYCAAGARRGGSGDWGQGTQVTVSS,high polyreactivity
3,QVQLVESRGGLVQAGGSLRLSSAASGITFGRNPMGWYRQAPGKERELVAAIESGGNTYADSVKGRFTISRDNAKNTVYLQMNSLKPEDTAVYYCAVDGGEFSSYGYWGQGTQVTVSS,low polyreactivity
4,QVQLVESGGGLVQAGGSLRLSCAASGFTLWLNAMGWYRRAPGKERELVAAITTSDDGTYYADSVKGRFTISRDNAKNTVYLQMNSLKPEDTAVYYCAADYYSVLYDYWGQGTQVTVSS,low polyreactivity
5,QVHLVESGGGLVKAGGSLRLSCAASGSIFTWYAMGWYRQEPGKERELVAAITWRGGSTYYADSVKGRFTISRDNAKNTVYLQMNSLKPEDTAVYYCAAAGRSGKSLLQYGYWGQGTQVTVSS,high polyreactivity
6,QVQLVESGGGLVQAGGSLRLSCAASGSTFYSYAMGWYRQAPGKEREMVAAITRGGSTNYADSVKGRFTISRDNAKNTVYLQMNSLKPDDTAVYYCAKSKYTGTAFGGKKTWFNYWGQGTQVTVSS,high polyreactivity
7,QDQLVESGGGLVQAGGSLSLSCADSGLTFGANTMGWYRQAPGKERELVATITQSVGRTYYADSVKGRFTISRDNAKNTVYLQMNSLKPEDTADYYCNAELYTVRVYTHPVYVRHDYWGQGTQVTVSS,high polyreactivity
8,QVQLVESGGGLVQAGGSLRLSCAASGRIWSNAMGWYRQAPGKERELVAVISSRGGSTYYADSVKGRFTISRDNAKNTVYFQMNSLKPEDTAVYYCAARQRAKYNYWGQGTQVTVSS,high polyreactivity
9,QVQLVESGGGLDQAGGSLRLSCADSGITFSYYAMRWYRQAPGKERELVAAISSGGSKNYADSVKGRFTISRDNGKNTVYFQMNSLKPEDTEVYYCAATQQFWWAYRYDYWGQGTQVTVSS,low polyreactivity
10,QVQLVESGGGLVQAGGSLRLSCAASGITFLSNAMGWYRQAPGKERELDAAISRGGGTTYYADSVKGRFTISRDIAKNTVYLLMNCLKPEDTAGSYCGTESTHTRRYWYEYWGLGTQVTVSS,high polyreactivity
11,QVQLVESWGGLVQAGGSLRLSCAASGRILGDYAMGWYRQAPGKEREFVAAIDYNGGSTNYADSVKGRFTISRDNAKNTVFLQMNSLKPEDTAVYYCAAPGFPSRNGFGYWGQGNQVTVSS,low polyreactivity
12,QVQLVESGGGLVQARGSLRLSCAASGIIFLVNDMGWYRQAPGKVRELVAAITYSGDGTFYADSVKGRFTISRDNAKNTVYLQMNSLKPEDTAVYYCAADLPESPESYYHTDDYWGQGTQGTVSS,low polyreactivity
13,QVQLVESGGGLVQAGGSLRLSCAASGSIFVTNAMGWYRQAPGKERELVAAISVSGGSTYYADSVKGRFTISRDNAKNTVYLQMNSLKPEDTGVYYCAADGYIGWRHIYEYWGQGTQVTVSS,low polyreactivity
14,QVQLQESGVGLVQAGGSLRLSCAASGTIFRISDMGSYRQAPGKEREFVAAITYGANTYYADSGKGRFTISRDNAKNTVYLQMNSLKPEDTAVYYWAVPPVKETILDYWGQGTQVTVSS,low polyreactivity
15,QVQLVESGGGLVQAGGSLRLSCAATGRIFYRYSMGWYRQAPGKERELVAAIRYSGGTTYADSVKGRFTISRDNAKNTVYLQMNSLKPEDTAVFYCAARASLWGGFESWGQGTQVTVSS,high polyreactivity
16,QVQLVESGGGLVQAGGSLRLSCAASGRTIIVYAMGWYRQAPGKERELVASITGIGDRTYYADSVKGRFTISRDNAKNTVYLQMNSLKPEDTAVYYCAKYGRTRFYYWGQGTQVTVSS,high polyreactivity

row,Sequence,polyreactivity (PSR sort gate)
1,QVQLVESGGGLDQAGGSLRLTCAASGFNFSYYVMGWYRQAPGKERELVAAITKSGGSTYYADSVKGRFTIARDNAKNTVYLQMYSLKPEDTAVYFLAAVRGYRCYDYWGQGTQVTVSS,high polyreactivity
2,QVHLVQSGGGLVQAGGSLRLSCAASGSIYVAYEMGWYRQAPGKERELVAAINFDGTSTYYADSVKGRFTISRDNAKNTVYLQMNSLKPEDTAVYYCNKRVSPTYKGQYDYWGQGTQVTVSS,low polyreactivity
3,QVQLVESGGGLVQAGGSLRLSCAASGSIFFWNAMGWYRQAPGKERELVAAISWSAGITYYADSVKGRFTISRDNAKNTVYVQMNSLKPEDTAVYYCARDQGWYTVYYDSYDYWGQGTLVTVSS,low polyreactivity
4,QVQLVESGGGLVQAGGSLRLSCAASGSTFLGYAMGWYRQAPGKERELVAVIDNGGDTYYADSVKGRFTISRDNAKNTVYLQINSLKPEDTEVYYCAADLSYLGYWEYDYWGQGTQVTVSS,low polyreactivity
5,QVQLVESGGGLFQAGGSLRLSCAASGFTFPAYNMGWYRQAPRKEMEMVAAITSSGGNTYYADSVKGRFTISRHNAKNTVYLQMNSLKPEDTAVYYWATFSVRWPSNDHVRYDYWGHGTQVTVSS,low polyreactivity
6,QVQLVESCGGLVQAGGSLRLSCAASGIIFPPYAMGWYRPAPGKERELVAAITRSGASTYYADSVKGRFTISRDNAKNTVYLQMNSLKPEDTAVYYCAVGVPGGYWKDYYWGQGTQVTVSS,high polyreactivity
7,QFQLVESGGGLVQAGGILRLSCADSGSTFRWYAMGWYRKAPGKERELVASITYSGASTYYADSVKGRFTISRDNAKNTVYLQMISLKPEDTAVYYCNAVFWFSYVSEYDYWGQGTQVTVSS,high polyreactivity
8,QVQLVESGGGLVQAGGSLRLSSAASGSTFRFNAMGWYRQAPGKERELVATISSGGRTYYADSVKGSFTISRDNAKNTVYLQMNSLKPEDTAVYYCAARTGYFLGRFDYWGQGTQVTVSS,high polyreactivity
9,QVQLVESGGGLVQAGGSLRLSCAASGSIFKWYAMGWYRQAPGKEREFVAAITNGGGSTYYADSVKGRFTISRDNAKNTVYLQMNSLKPEDTAVYYCAKDGHSYYPWEYDYWGQGTQVTVSS,low polyreactivity
10,QVQLVESGGGLVQAGGSLRLSSAASGSIFVPYAMGWYRQAPGKEREFVAAIYSGGGNTYYADSVKGRFTISRDNAKNTVYLQMNSLKPEDTAVYYCAAAYVYSSWSRYDYWGQGTQVTVSS,high polyreactivity
11,QVHLVESVGGLVQAGGSLSLSCAASGLIFDGYAMGWYRQAPGKERDLVAAITWRGGRTYADSVKGRFTISRDNAKNTVYLQMNSLQPEVTAVYYCAVRRWGTSFVEDDYWGQGTQVTVSS,low polyreactivity
12,QVQLVESGGGLVQAGGSLRLICAASGRIFLYYAMGWYRQAPGKERELVADINSGGNTTYADSVKGRFTISRDNAKNTVYLQMNSLKPEDTAVYYCAADPVFDLWEFVLDYGYDYWGQGTQVTVSS,low polyreactivity
13,QVQLVESGGGLVQAGGSLRLSCAASGYTFGYYAMGWYRQAPGKERELVAAINYSGGRTYYADSVKGRFTISRDNAKNTVYLQMNSLKPEDTAVYYCNAKYGGWSKYWFPRDMDYWGQGTQVTVSS,low polyreactivity
14,QVQLVESGGGLVQAGGSLRLSCAASGLTFSRYAMGWYRQAPGKERELVAAISGSGGSTYYADSVKGRFTISRDNAKNTVYLQMNSLKPEDTAVYYCNKYRATNSARDYWGQGTQVTVSS,high polyreactivity
15,QVQLVESGGGLVQAGGSLRLSCAASGSIFFLYAMGWYRQAPGKERELVAAISRDGRTNYADSVKGRFTISRDNAKNTVYLQMNSLKPEDTAVYYCAKDGNHPGAVVYGYWGQRTQVTVSS,low polyreactivity
16,QVQLVDSGGGLVQAGGSLRLSCAASGFIFSAYTMGWYRQAPGKERELVAAISGSGVGTYYADSVKGRFTISRDNAKNTVYLQMNSLKPEDTAVYYCNAADYTAYYWEYYYWGQGTQVTVSS,low polyreactivity
